In the supplement of paper PMC9112550, “Optimization of the antimicrobial peptide Bac7 by deep mutational scanning” (BMC Biology, 2022):

Test system: Escherichia coli TOP10
Assay: shrunken log2 fold change of peptide-encoding DNA abundance (4.5 h post-induction vs induction); higher = less antimicrobial activity (less host growth inhibition)
Settings: time post-induction: 4.5 h; library: site-saturation at positions 5, 18, 19, 20
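Also: peptides expressed intracellularly from a pBAD plasmid library in pooled LB shake-flask culture, induced with 0.3% L-arabinose, DNA abundance read by NGS, three biological replicates, DESeq2 with apeglm shrinkage.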

Sequence	shrunken log2 fold change
RRIRGRPPRLPRPRPRPWNYPRP	-0.0902
RRIRSRPPRLPRPRPRPMNCPRP	-0.0191
RRIRYRPPRLPRPRPRPWNNPRP	-0.656
RRIRCRPPRLPRPRPRPPQVPRP	0.204
RRIRFRPPRLPRPRPRPEQTPRP	-0.0498
RRIRCRPPRLPRPRPRPVFVPRP	-0.136
RRIRVRPPRLPRPRPRPSIDPRP	-0.455
RRIRLRPPRLPRPRPRPKAIPRP	0.0195
RRIRPRPPRLPRPRPRPGLEPRP	0.195
RRIRMRPPRLPRPRPRPSDTPRP	0.232
RRIRKRPPRLPRPRPRPCSAPRP	-0.0728
RRIRQRPPRLPRPRPRPGRGPRP	0.333
RRIRNRPPRLPRPRPRPDDSPRP	-0.263
RRIRYRPPRLPRPRPRPYCFPRP	-1
RRIRNRPPRLPRPRPRPRECPRP	0.0263
RRIRQRPPRLPRPRPRPCILPRP	-0.458
RRIRDRPPRLPRPRPRPWWEPRP	0.186
RRIRARPPRLPRPRPRPTSSPRP	0.289
RRIRERPPRLPRPRPRPDPWPRP	-0.12
RRIRHRPPRLPRPRPRPKLKPRP	-0.0873
RRIRFRPPRLPRPRPRPKCVPRP	-0.184
RRIRQRPPRLPRPRPRPHSFPRP	-0.00144
RRIRSRPPRLPRPRPRPMCGPRP	-0.145
RRIRMRPPRLPRPRPRPVELPRP	-0.281
RRIRDRPPRLPRPRPRPKWKPRP	-0.00871

Sequence	shrunken log2 fold change
RRIRFRPPRLPRPRPRPMQLPRP	0.0166
RRIRNRPPRLPRPRPRPQGHPRP	-0.296
RRIRIRPPRLPRPRPRPAHVPRP	-0.0796
RRIRERPPRLPRPRPRPEIGPRP	-0.166
RRIRNRPPRLPRPRPRPNWSPRP	-0.106
RRIRQRPPRLPRPRPRPSESPRP	-0.0923
RRIRDRPPRLPRPRPRPVLNPRP	-0.165
RRIRKRPPRLPRPRPRPETWPRP	0.0991
RRIRTRPPRLPRPRPRPMPRPRP	0.175
RRIRYRPPRLPRPRPRPGVNPRP	-3.04
RRIRERPPRLPRPRPRPSNDPRP	-0.247
RRIRERPPRLPRPRPRPNVIPRP	-1.38
RRIRMRPPRLPRPRPRPARAPRP	1.43
RRIRSRPPRLPRPRPRPFGLPRP	-0.0988
RRIRDRPPRLPRPRPRPCLAPRP	0.291
RRIRHRPPRLPRPRPRPAGNPRP	0.023
RRIRIRPPRLPRPRPRPMQTPRP	-0.0288
RRIRARPPRLPRPRPRPHQAPRP	-0.0279
RRIRDRPPRLPRPRPRPEVMPRP	0.152
RRIRPRPPRLPRPRPRPFCKPRP	-0.511
RRIRERPPRLPRPRPRPTTMPRP	-0.364
RRIRGRPPRLPRPRPRPHAFPRP	0.372
RRIRDRPPRLPRPRPRPVWDPRP	0.107
RRIRFRPPRLPRPRPRPPRTPRP	0.579
RRIRIRPPRLPRPRPRPVTQPRP	-0.0794

Sequence	shrunken log2 fold change
RRIRPRPPRLPRPRPRPSCYPRP	-0.332
RRIRSRPPRLPRPRPRPIDKPRP	-0.156
RRIRTRPPRLPRPRPRPARMPRP	0.127
RRIRLRPPRLPRPRPRPRVAPRP	0.272
RRIRQRPPRLPRPRPRPHRYPRP	-0.812
RRIRRRPPRLPRPRPRPNHMPRP	-0.299
RRIRERPPRLPRPRPRPIQSPRP	-0.642
RRIRWRPPRLPRPRPRPCPDPRP	0.111
RRIRVRPPRLPRPRPRPGVIPRP	0.0193
RRIRLRPPRLPRPRPRPKDEPRP	0.114
RRIRCRPPRLPRPRPRPYNAPRP	-1.23
RRIRLRPPRLPRPRPRPCRSPRP	-0.0599
RRIRQRPPRLPRPRPRPEQVPRP	0.107
RRIRQRPPRLPRPRPRPNYLPRP	-0.134
RRIRPRPPRLPRPRPRPFDWPRP	0.171
RRIRTRPPRLPRPRPRPSYMPRP	-1.28
RRIRRRPPRLPRPRPRPSETPRP	0.493
RRIRPRPPRLPRPRPRPYSTPRP	-0.729
RRIRARPPRLPRPRPRPLVSPRP	0.653
RRIRRRPPRLPRPRPRPQMAPRP	0.455
RRIRHRPPRLPRPRPRPSKCPRP	-1.04
RRIRFRPPRLPRPRPRPILLPRP	-0.554
RRIRHRPPRLPRPRPRPQRGPRP	-0.0034
RRIRGRPPRLPRPRPRPFTWPRP	0.725
RRIRFRPPRLPRPRPRPYMEPRP	-0.0116

Sequence	shrunken log2 fold change
RRIRVRPPRLPRPRPRPCSLPRP	-0.201
RRIRSRPPRLPRPRPRPKSYPRP	-0.231
RRIRFRPPRLPRPRPRPKNCPRP	1.35
RRIRVRPPRLPRPRPRPNGMPRP	-0.32
RRIRVRPPRLPRPRPRPTPNPRP	0.306
RRIRGRPPRLPRPRPRPNFWPRP	0.544
RRIRIRPPRLPRPRPRPNAEPRP	-0.151
RRIRERPPRLPRPRPRPAWFPRP	0.187
RRIRNRPPRLPRPRPRPGSQPRP	0.0302
RRIRTRPPRLPRPRPRPIFAPRP	0.408
RRIRFRPPRLPRPRPRPNIRPRP	-0.184
RRIRIRPPRLPRPRPRPLETPRP	-0.0471
RRIRLRPPRLPRPRPRPIYWPRP	-0.0187
RRIRPRPPRLPRPRPRPYNWPRP	-0.731
RRIRDRPPRLPRPRPRPPPSPRP	0.838
RRIRSRPPRLPRPRPRPSETPRP	-0.44
RRIRQRPPRLPRPRPRPCKEPRP	0.00843
RRIRCRPPRLPRPRPRPGIYPRP	-0.0438
RRIRNRPPRLPRPRPRPQFHPRP	-0.28
RRIRYRPPRLPRPRPRPTTEPRP	0.00298
RRIRCRPPRLPRPRPRPWLGPRP	0.188
RRIRVRPPRLPRPRPRPVPSPRP	-0.0143
RRIRNRPPRLPRPRPRPGYEPRP	0.0608
RRIRVRPPRLPRPRPRPLGTPRP	0.188
RRIRKRPPRLPRPRPRPQIEPRP	0.0198

Sequence	shrunken log2 fold change
RRIRSRPPRLPRPRPRPGPMPRP	0.34
RRIRDRPPRLPRPRPRPGCWPRP	1.03
RRIRARPPRLPRPRPRPKCQPRP	0.432
RRIRPRPPRLPRPRPRPLLNPRP	-0.224
RRIRARPPRLPRPRPRPNFNPRP	-0.0686
RRIRGRPPRLPRPRPRPGVAPRP	1.53
RRIRYRPPRLPRPRPRPIDPPRP	-0.00088
RRIRIRPPRLPRPRPRPLHSPRP	-0.402
RRIRSRPPRLPRPRPRPSLEPRP	0.0147
RRIRGRPPRLPRPRPRPESCPRP	1.33
RRIRVRPPRLPRPRPRPEKNPRP	0.0805
RRIRARPPRLPRPRPRPWQWPRP	-0.00151
RRIRPRPPRLPRPRPRPYRVPRP	0.101
RRIRIRPPRLPRPRPRPRMIPRP	2.5
RRIRGRPPRLPRPRPRPGGMPRP	0.662
RRIRRRPPRLPRPRPRPYMRPRP	0.044
RRIRRRPPRLPRPRPRPHVEPRP	-0.162
RRIRVRPPRLPRPRPRPLRFPRP	0.571
RRIRARPPRLPRPRPRPKVQPRP	0.0571
RRIRVRPPRLPRPRPRPHTQPRP	0.00176
RRIRFRPPRLPRPRPRPWICPRP	-1.05
RRIRPRPPRLPRPRPRPVFEPRP	0.222
RRIRVRPPRLPRPRPRPHSFPRP	-0.155
RRIRVRPPRLPRPRPRPLGQPRP	0.131
RRIRFRPPRLPRPRPRPFGCPRP	-0.0616

Sequence	shrunken log2 fold change
RRIRDRPPRLPRPRPRPYEQPRP	-0.0135
RRIRCRPPRLPRPRPRPACSPRP	-0.0823
RRIRGRPPRLPRPRPRPPHLPRP	0.558
RRIRYRPPRLPRPRPRPYFDPRP	-0.27
RRIRARPPRLPRPRPRPVNEPRP	0.356
RRIRYRPPRLPRPRPRPDMWPRP	-1.03
RRIRPRPPRLPRPRPRPYSGPRP	-0.524
RRIRLRPPRLPRPRPRPMYHPRP	-0.493
RRIRKRPPRLPRPRPRPELAPRP	2.83
RRIRQRPPRLPRPRPRPPVWPRP	0.223
RRIRTRPPRLPRPRPRPAPPPRP	0.525
RRIRARPPRLPRPRPRPCAGPRP	0.477
RRIRLRPPRLPRPRPRPGCIPRP	-0.346
RRIRIRPPRLPRPRPRPIMGPRP	-0.08
RRIRVRPPRLPRPRPRPKYRPRP	-0.0331
RRIRLRPPRLPRPRPRPAVWPRP	0.72
RRIRPRPPRLPRPRPRPTGEPRP	0.396
RRIRQRPPRLPRPRPRPFKDPRP	-0.126
RRIRIRPPRLPRPRPRPITAPRP	-0.592
RRIRGRPPRLPRPRPRPIFMPRP	0.283
RRIRFRPPRLPRPRPRPFQRPRP	0.0192
RRIRERPPRLPRPRPRPTQYPRP	-0.304
RRIRRRPPRLPRPRPRPQDAPRP	0.427
RRIRYRPPRLPRPRPRPADMPRP	-0.382
RRIRHRPPRLPRPRPRPSVHPRP	-0.204
